Laboratory results published in US20120316071A1 (published 2012).
Blank lines part the entries; values can stand above or below the binder they belong to.

Experiments:
[1] = biological target: T1, rHuman EGF R/Fc Chimera, CF (R&D Systems Cat#344-ER) (human, UniProt P00533 25-645); assay: ECL multispot (MSD), antigen spotted; blank spot of this well 229
T1 construct: Bought protein; also called epidermal growth factor receptor

[2] = biological target: T2, rHuman HGF R/c-MET/Fc Chimera, CF (R&D Systems Cat#358-MT/CF) (human, UniProt P08581 25-932); assay: as above
T2 construct: Bought protein; also called HGF R/Fc; hepatocyte growth factor receptor

[3] = biological target: T3, rHuman Notch-1/Fc Chimera, CF (R&D Systems Cat#3647-TK) (human, UniProt P46531 19-526); assay: as above
T3 construct: Bought protein

[4] = biological target: T4, rHuman CD44/Fc Chimera, CF (R&D Systems Cat#3660-CD) (human, UniProt P16070 21-220); assay: as above
T4 construct: Bought protein

[5] = biological target: T5, rHuman IGF-1 sR, CF (R&D Systems Cat#391-GR) (human, UniProt P08069 31-932); assay: as above
T5 construct: Bought soluble receptor; also called insulin-like growth factor-1 soluble receptor

[6] = biological target: T6, rHuman P-Cadherin/Fc Chimera, CF (R&D Systems Cat#861-PC) (human, UniProt P22223 108-654); assay: as above
T6 construct: Bought protein

[7] = biological target: T7, rHuman Erythropoietin R/Fc Chimera, CF (R&D Systems Cat#963-ER) (human, UniProt P19235 25-250); assay: as above
T7 construct: Bought protein; also called EPO R; EPO R/Fc
T7 sequence (looked up): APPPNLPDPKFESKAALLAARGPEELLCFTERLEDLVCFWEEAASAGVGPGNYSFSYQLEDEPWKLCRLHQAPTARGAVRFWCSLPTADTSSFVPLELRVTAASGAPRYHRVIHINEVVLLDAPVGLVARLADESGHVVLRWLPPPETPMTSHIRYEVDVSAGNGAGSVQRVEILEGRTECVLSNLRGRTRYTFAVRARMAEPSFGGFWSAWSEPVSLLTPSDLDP

[8] = biological target: T8, Recombinant Human DLL4 (R&D Systems Cat#1506-D4/CF) (human, UniProt Q9NR61 27-524); assay: as above
T8 construct: Bought recombinant protein; also called delta-like protein 4; rHuman DLL4

[9] = biological target: T9, rHuman ErbB2/Fc Chimera, CF (R&D Systems Cat#1129-ER) (human, UniProt P04626 23-652); assay: as above
T9 construct: Bought protein; also called human epidermal growth factor 2 receptor

[10] = biological target: T1, rHuman EGF R/Fc Chimera, CF (R&D …); assay: ECL multispot (MSD), antigen spotted; blank spot of this well 287
[11] = biological target: T2, rHuman HGF R/c-MET/Fc Chimera, CF (R&D …); assay: as above
[12] = biological target: T3, rHuman Notch-1/Fc Chimera, CF (R&D …); assay: as above
[13] = biological target: T4, rHuman CD44/Fc Chimera, CF (R&D Systems …); assay: as above
[14] = biological target: T5, rHuman IGF-1 sR, CF (R&D Systems …); assay: as above
[15] = biological target: T6, rHuman P-Cadherin/Fc Chimera, CF (R&D …); assay: as above
[16] = biological target: T7, rHuman Erythropoietin R/Fc Chimera, CF …; assay: as above
[17] = biological target: T8, Recombinant Human DLL4 (R&D Systems …); assay: as above
[18] = biological target: T9, rHuman ErbB2/Fc Chimera, CF (R&D …); assay: as above
[19] = biological target: T1, rHuman EGF R/Fc Chimera, CF (R&D …); assay: ECL multispot (MSD), antigen spotted; blank spot of this well 261
[20] = biological target: T2, rHuman HGF R/c-MET/Fc Chimera, CF (R&D …); assay: as above
[21] = biological target: T3, rHuman Notch-1/Fc Chimera, CF (R&D …); assay: as above
[22] = biological target: T4, rHuman CD44/Fc Chimera, CF (R&D Systems …); assay: as above
[23] = biological target: T5, rHuman IGF-1 sR, CF (R&D Systems …); assay: as above
[24] = biological target: T6, rHuman P-Cadherin/Fc Chimera, CF (R&D …); assay: as above
[25] = biological target: T7, rHuman Erythropoietin R/Fc Chimera, CF …; assay: as above
[26] = biological target: T8, Recombinant Human DLL4 (R&D Systems …); assay: as above
[27] = biological target: T9, rHuman ErbB2/Fc Chimera, CF (R&D …); assay: as above
[28] = biological target: T10, rHuman IGF-1 sR (insulin-like growth factor-1 soluble receptor), CF (R&D Systems Cat#391-GR) (human, UniProt P08069 31-932); assay: ECL multispot (MSD) assay, antigen spotted on plate, Fab in solution; blank spot of this well 271
T10 construct: Bought recombinant soluble receptor

[29] = biological target: T11, Recombinant Human DLL4 (R&D Systems Cat#1506-D4/CF) (human, UniProt Q9NR61 27-524); assay: as above
T11 construct: Bought recombinant protein; also called delta-like protein 4; rHuman DLL4

[30] = biological target: rHuman HGF R/c-MET/Fc Chimera, CF (R&D Systems Cat#358-MT/CF) (human, UniProt P08581 25-932); assay: as above
[31] = biological target: T12, rHuman Notch-1/Fc Chimera, CF (R&D Systems Cat#3647-TK) (human); assay: as above
T12 chain: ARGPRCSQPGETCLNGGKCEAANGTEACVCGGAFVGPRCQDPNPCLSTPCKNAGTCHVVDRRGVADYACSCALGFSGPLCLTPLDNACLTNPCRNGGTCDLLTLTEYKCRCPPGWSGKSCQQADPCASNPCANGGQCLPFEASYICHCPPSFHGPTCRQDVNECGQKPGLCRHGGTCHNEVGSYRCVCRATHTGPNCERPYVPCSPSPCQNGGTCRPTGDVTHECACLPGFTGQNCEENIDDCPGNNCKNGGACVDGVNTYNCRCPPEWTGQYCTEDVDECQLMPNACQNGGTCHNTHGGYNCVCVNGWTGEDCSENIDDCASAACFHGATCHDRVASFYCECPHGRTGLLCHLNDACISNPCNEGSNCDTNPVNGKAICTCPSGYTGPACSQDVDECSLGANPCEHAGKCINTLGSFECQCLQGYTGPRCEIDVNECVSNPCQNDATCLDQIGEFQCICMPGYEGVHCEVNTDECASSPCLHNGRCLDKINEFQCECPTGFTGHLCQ

[32] = biological target: rHuman CD44/Fc Chimera, CF (R&D Systems Cat#3660-CD) (human, UniProt P16070 21-220); assay: as above
[33] = biological target: rHuman P-Cadherin/Fc Chimera, CF (R&D Systems Cat#861-PC) (human, UniProt P22223 108-654); assay: as above
[34] = biological target: rHuman Erythropoietin R/Fc Chimera, CF (R&D Systems Cat#963-ER) (human, UniProt P19235 25-250); assay: as above

- ECL signal [1]: 363
- ECL signal [2]: 307
- ECL signal [3]: 398
- ECL signal [4]: 223
- ECL signal [5]: 223
- ECL signal [6]: 189
- ECL signal [7]: 252
- ECL signal [8]: 2580
- ECL signal [9]: 331
- ECL signal [10]: 226
- ECL signal [11]: 344
- ECL signal [12]: 358
- ECL signal [13]: 205
- ECL signal [14]: 162
- ECL signal [15]: 250
- ECL signal [16]: 319
- ECL signal [17]: 2440
- ECL signal [18]: 317
B1: Fab VH1-46_IGHD6-6*01_IGHJ1*01 S102A/S103P/S104F (APF) & L6_IGKJ1*01 (Fab, V domains shown)
VH: QVQLVQSGAEVKKPGASVKVSCKASGYTFTSYYMHWVRQAPGQGLEWMGIINPSGGSTSYAQKFQGRVTMTRDTSTSTVYMELSSLRSEDTAVYYCAREEYAPFSAEYFQHWGQGTLVTVSS
VL: not shown
notes: Fab made in E. coli: VH cloned into Plasmid A (CH1, His6 and Flag tags), VL into Plasmid C (kappa CL); Template of the light chain NNK mutants; also called APF / parent; H:APF & L:wt

- ECL signal [19]: 290
- ECL signal [20]: 325
- ECL signal [21]: 229
- ECL signal [22]: 268
- ECL signal [23]: 210
- ECL signal [24]: 314
- ECL signal [25]: 263
- ECL signal [26]: 817
- ECL signal [27]: 234
B2: Fab VH1-46_IGHD6-6*01_IGHJ1*01 S102A/S103P/S104F (APF) & L6_IGKJ1*01 R91Q (Fab, V domains shown)
VH: QVQLVQSGAEVKKPGASVKVSCKASGYTFTSYYMHWVRQAPGQGLEWMGIINPSGGSTSYAQKFQGRVTMTRDTSTSTVYMELSSLRSEDTAVYYCAREEYAPFSAEYFQHWGQGTLVTVSS
VL: EIVLTQSPATLSLSPGERATLSCRASQSVSSYLAWYQQKPGQAPRLLIYDASNRATGIPARFSGSGSGTDFTLTISSLEPEDFAVYYCQQQSNWPPWTFGQGTKVEIKR
notes: Fab made in E. coli: VH cloned into Plasmid A (CH1, His6 and Flag tags), VL into Plasmid C (kappa CL); also called APF / R91Q

- ECL signal [28]: 211
- ECL signal [29]: 2090
- ECL signal [30]: 405
- ECL signal [31]: 193
- ECL signal [32]: 316
- ECL signal [33]: 240
- ECL signal [34]: 304
B3: Fab VH1-46_IGHD6-6*01_IGHJ1*01 S102A/S103P/S104F (APF) & L6_IGKJ1*01 S92N (Fab, V domains shown)
VH: QVQLVQSGAEVKKPGASVKVSCKASGYTFTSYYMHWVRQAPGQGLEWMGIINPSGGSTSYAQKFQGRVTMTRDTSTSTVYMELSSLRSEDTAVYYCAREEYAPFSAEYFQHWGQGTLVTVSS
VL: EIVLTQSPATLSLSPGERATLSCRASQSVSSYLAWYQQKPGQAPRLLIYDASNRATGIPARFSGSGSGTDFTLTISSLEPEDFAVYYCQQRNNWPPWTFGQGTKVEIKR
notes: Fab made in E. coli (heavy chain in plasmid A with CH1, His6 and Flag tags; kappa light chain in plasmid C); also called APF / S92N
